In test [1] the target is T1, human FGFR2 IIIb variant protein (isoform 2: NP_075259), expressed on transfected cells (human, UniProt P21802 22-821).
T1 construct: also called pcDNA-DEST40-FGFR2 IIIb
T1 chain: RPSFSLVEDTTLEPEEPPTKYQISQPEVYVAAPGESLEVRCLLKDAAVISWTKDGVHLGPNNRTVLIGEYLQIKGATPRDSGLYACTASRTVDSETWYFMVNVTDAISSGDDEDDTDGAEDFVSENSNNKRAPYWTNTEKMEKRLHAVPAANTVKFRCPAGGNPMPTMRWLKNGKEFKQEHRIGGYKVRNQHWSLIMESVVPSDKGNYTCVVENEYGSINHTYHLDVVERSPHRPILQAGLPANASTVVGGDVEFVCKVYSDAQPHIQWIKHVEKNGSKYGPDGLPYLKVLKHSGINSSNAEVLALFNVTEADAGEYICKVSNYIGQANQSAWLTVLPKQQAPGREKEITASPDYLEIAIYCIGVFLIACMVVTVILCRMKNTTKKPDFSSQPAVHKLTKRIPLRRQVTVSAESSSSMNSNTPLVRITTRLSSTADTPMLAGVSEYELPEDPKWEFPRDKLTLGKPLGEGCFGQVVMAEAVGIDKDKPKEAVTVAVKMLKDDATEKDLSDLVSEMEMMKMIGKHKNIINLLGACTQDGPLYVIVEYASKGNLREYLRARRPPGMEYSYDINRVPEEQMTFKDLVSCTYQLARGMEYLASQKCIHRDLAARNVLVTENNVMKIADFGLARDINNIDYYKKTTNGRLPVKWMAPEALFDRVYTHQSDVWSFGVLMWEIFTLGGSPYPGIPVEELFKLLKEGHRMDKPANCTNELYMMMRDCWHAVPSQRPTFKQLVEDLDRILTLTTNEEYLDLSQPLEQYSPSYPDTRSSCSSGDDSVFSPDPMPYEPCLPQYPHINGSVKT
Briefly: flow cytometry, hybridoma supernatant on transfected HEK293T cells. As to the method: (§1) The cell suspension was centrifuged to remove the supernatant. […] The cells were washed twice with PBS containing 5% FBS, then suspended by the addition of Anti-Rat IgG FITC conjugate (manufactured by Sigma-Aldrich Corp.) diluted 320-fold with PBS containing 5% FBS, and left standing at 4° C. for 1 hour. The cells were washed 3 times with PBS containing 5% FBS and then resuspended in PBS containing 5% FBS and 2 μg/ml 7-aminoactinomycin D (manufactured by Molecular Probes, Inc.), followed by detection using a flow cytometer (FC500; manufactured by Beckman Coulter Inc.). The data was analyzed using Flowjo (manufactured by Tree Star Inc.). After removal of 7-aminoactinomycin D-positive dead cells by gating, the FITC fluorescence intensity of live cells was plotted to a histogram to calculate average fluorescence intensity (MFI).
A general note: In flow cytometry, cells or beads pass a laser one at a time.

For test [2], the target named is T1, human FGFR2 IIIb variant protein …. Briefly: Cell-ELISA on transfected 293 alpha cells, antibody 2 ug/ml. Here is the method: (§2) The resulting cells were dispensed in an amount of 100 μl/well to a 96-well plate (manufactured by Corning Inc.) and cultured overnight at 37° C. under 5% CO₂ conditions in a DMEM medium containing 10% FBS. The obtained transfected cells were used in the attached state in Cell-ELISA. […] The cells in the wells were washed once with PBS containing 5% FBS. Then, Anti-Human IgG-Peroxidase antibody produced in goat (manufactured by Sigma-Aldrich Corp.) diluted 500-fold with PBS containing 5% FBS was added thereto, and the plate was left standing at 4° C. for 1 hour. The cells in the wells were washed 5 times with PBS containing 5% FBS. Then, an OPD chromogenic solution (OPD solution (o-phenylenediamine dihydrochloride (manufactured by Wako Pure Chemicals Industries, Ltd.) and H₂O₂ dissolved at concentrations of 0.4 mg/ml and 0.6% (v/v), respectively, in 0.05 M trisodium citrate and 0.1 M disodium hydrogen phosphate dodecahydrate, pH 4.5)) was added thereto at a concentration of 100 μl/well. Color reaction was performed with occasional stirring and stopped by the addition of 1 M HCl at a concentration of 100 μl/well. Then, the absorbance was measured at 490 nm using a plate reader (ARVO; PerkinElmer, Inc.).
For orientation: In an ELISA, binding on a coated surface is turned into a signal by an enzyme label.

In test [3] the target is T2, human FGFR2 IIIc variant protein (isoform 1: NP_000132), expressed on transfected cells (human, UniProt P21802 22-821).
T2 construct: also called pcDNA-DEST40-FGFR2 IIIc
Briefly: flow cytometry, hybridoma supernatant on transfected HEK293T cells. Here is the method:
as §1

Test [4] concerns the target T2, human FGFR2 IIIc variant protein …. Nature of the test: Cell-ELISA on transfected 293 alpha cells, antibody 2 ug/ml. As to the method: as §2
Test [5] has the same target. Briefly: flow cytometry on transfected HEK293T cells. As to the method:
as §1

Substitutions are numbered along the chain they refer to.

B1: rat anti-human FGFR2 monoclonal antibody FR2-10 (antibody, V domains shown)
VH: EVQLVESGGGLVQPGRSLKLSCVASGFRFNDFWMTWIRQAPGKGLEWVASITYTGDNTYYAGSVKGRITISRDNAKSTLYLQMNSLRSEDTATYYCTRDDYGGYSPYYMDAWGQGTSVTVSS
VL: DIQMTQSPSSLSAFLGDRVTITCRASQDIGNYLRWFQQKPGKSPRLMIYGATNLANGVPSRFSGSRSGSDYSLTINNLESEDMAIYYCLKHNEYPFTFGSGTKLEIKR
notes: Used as hybridoma culture supernatant or purified from mouse ascites; also called rat FR2-10 antibody
For the molecule B1, in test [1], the binding result is reported as “binds”.

B2: human chimeric anti-FGFR2 antibody cFR2-10 (antibody, human IgG1, V domains shown)
VH: B1 VH
VL: B1 VL
notes: Rat FR2-10 variable regions on human IgG1 / kappa constant regions; also called human chimeric FR2-10
For B2, the binding result in test [2] is given as “binds”.

B3: rat anti-human FGFR2 monoclonal antibody FR2-13 (antibody, V domains shown)
VH: QVKLLQSGAELVKPGASVKLSCKTSGFTFSTSYMSWLKQVPGPSIEWIGWIYAGDGGTKYNQKFKGKATLTVDKSSSTAYMDLSSLTSEDAAVYFCATDGYGDWFAYWGQGTLVTVSS
VL: DIQMTQSPASLSASLGETVTIECRASEDIYSNLAWYQQKPGNSPQLLIYDANILADGVPSRFSGSGSGTQYSLKINSLQSEDVASYFCQQYNNYPPFTFGVGTKLELKR
notes: Used as hybridoma culture supernatant or purified from mouse ascites; also called rat FR2-13 antibody
On to B3, for which the binding result in test [1] and in test [3] was “binds” each time.

B4: human chimeric anti-FGFR2 antibody cFR2-13 (antibody, human IgG1, V domains shown)
VH: B3 VH
VL: B3 VL
notes: Rat FR2-13 variable regions on human IgG1 / kappa constant regions; also called human chimeric FR2-13
For the molecule B4, the binding result in test [2] and in test [4] was “binds” in each case.

B5: human chimeric anti-FGFR2 antibody cFR2-14 (antibody, human IgG1, V domains shown)
VH: B3 VH with I45T, S75F, A106T
VL: B3 VL with V101A
notes: Rat FR2-14 variable regions on human IgG1 / kappa constant regions; also called human chimeric FR2-14
With B5, the binding result in test [2] and in test [4] was “binds” each time.

B6: rat anti-human FGFR2 monoclonal antibody FR2-14 (antibody, V domains shown)
VH: B3 VH with I45T, S75F, A106T
VL: B3 VL with V101A
notes: Used as hybridoma culture supernatant or purified from mouse ascites; also called rat FR2-14 antibody
B6: the binding result in test [5] and in test [1] was “binds” each time.
